Laboratory results from the DeepSol protein solubility set.

Assay: soluble on expression in E. coli; label from the status in PepcDB or PDB records

SLELKITDFKVFVAQANFEWAFVRIYSKDLYGTGEAGPAPGLKGMESEFIQLLIGEDAFKVNRIAEKLRYATLYSGTTVYHLISAINIALYDLIGKYLNVPIYKLLGGDKTEIPVYVDAHGGKGLEAINALHLPVNLPWIKEAEVETNRLITTNNPVHGRLSMEKWNEDYSPEAYAKRALKMKNEGYKAMKFDLDVPTPYIDLRRVRNGDLSLKDIDYMVDIVKAVRESVGDEVEIMFDLHWRYNLNTAIRICKALEPYRLRWLEDPMPAIMAVSNYDELKLLTSQCSVPIETGENLYTVYQFKDLLNTGVRVWAPDIVKAGGITEGRRIAELAAMYDIEYSPHNIASPIGTMAHAHVGSIANTFGFVEFHGHDVPFWNEIVKPKRKIIEDGVIKLTDDPGLGIDLDDEVMRKYWPTYEL
soluble on expression in E. coli: soluble

GSHMSNAKTKLGITKYSIVTNSNDSVTLRLMTEHDLAMLYEWLNRSHIVEWWGGEEARPTLADVQEQYLPSVLAQESVTPYIAMLNGEPIGYAQSYVALGSGDGWWEEETDPGVRGIDQLLANASQLGKGLGTKLVRALVELLFNDPEVTKIQTDPSPSNLRAIRCYEKAGFERQGTVTTPDGPAVYMVQTRQAFERTRSDA
soluble on expression in E. coli: soluble

MGSDKIHHHHHHMTEDNNLGLEFKYLIVNDMDRKFGLWVNTVGYQSIPPDSPYPLKEHPSGYYFNAEKGRVLREYQLVYITKGRGLFSSDSTPERQVCKGRLMVLFPGQWHTYYPLRQTGWTEYYIGFEGPAIDTIVGDAFLSQERQILEVGINEELVSLFSRALEVAEADKISAQQYLSGIVLHMIGMILSISKNKVFEMSDVDQKIEQAKILMNENVSGNIDPEELAMRLNISYSWFRRVFKEYTGYAPAKYFQELKLRKAKQMLVGTSQSVKEISFFLGFQSTEYFFSFFKKRTGLTPLEYRSFGREE
soluble on expression in E. coli: not soluble

MGHHHHHHSHMPVVIKEVPSSEAAEDVMVAAPLVCSGKVLEVQVVNQTSVHVDLGSQPKENEAEPSTASSVPLQDEQEPPAYDQAPEVTLQADIEVMSTVHISSVYNDVPVTEGVVYIEQLPEQIVIPFTDQVACLKENEQSKENEQSPRVSPKSVVEKTTSGMSKKSVESVKLAQLEENAKYSSVYMEAEATALLSDTSLKGQPEVPAQLLDAEGAIKIGSEKSLHLEVEITSIVSDNTGQEESGENSVPQEMEGKPVLSGEAAEAVHSGTSVKSSSGPFPPAPEGLTAPEIEPEGEATAE
soluble on expression in E. coli: not soluble

MLSFEQSYAPSRNMKLLLVEPSGSYFNDSCCSEPNSPDSGFSSDDSISSDASFAERLTRSKTLPSALRRSRSKQSVKRVRFADSLGLDLENLQYFVKEDLHLQKFNIHFSTPSSSTPPPQLPHFPKQLINQPAPRLVLHNFPYRSEQEYQVKTRDSRVCVAALRASGSSIVGQVNLLNVAFDKVVVVRYTIDGWATQDEIVASYSHRLFDTEDIDAFNFTIAIPVKLSEGKCEFCVQYQVAGAEFWDNNGGDNYIVNVSTKGPSSPFTRCYGASTGLPDAPRGSTRRQQQRRWGRALEESDEETPYVSSAPRRGAHFH
soluble on expression in E. coli: not soluble

GELDPVVTWGTTPGQGIGIDDPIPEPEDLADDKVDTARRAQKHMRVEPGETMEGYDIDVAFLGSCTNARLPDLRRAARIVKGREVADDVRAFVVPGSQRVQRAAEEEGLKDIFEEAGFEWRNAGCSMCLGMNEDQLEGDEACASSSNRNFVGRQGSKDGRTVLMNPRMVAAAAITGEVSDVRDLKEVTLA
soluble on expression in E. coli: not soluble

GSHMNLKEQLCFSLYNAQRQVNRYYSNKVFKKYNLTYPQFLVLTILWDESPVNVKKVVTELALDTGTVSPLLKRMEQVDLIKRERSEVDQREVFIHLTDKSETIRPELSNASDKVASASSLSQDEVKELNRLLGKVIHAFDE
soluble on expression in E. coli: soluble

MDFKSSDAIRGPRTEDHLPHTAQAAVKIVIVGGFGVGKTTMVGSVSEIRPLTTEETMTQMGIGVDDNYGSESKTATTVAMDFGRISITEQLVLYLFGTPGQERFWFLWNGLFEGALGAVVLIDTRRLEVSFDVIGRLEERGVPFVIAVNDFPDAPRYPVEDLRGALDLTEDIPIVKCDARRRASSREVLMTLMHFLHSLAVSKTSVLEHHHHHH
soluble on expression in E. coli: not soluble

DRTTYYSILGLTSNATSSEVHKSYLKLARLLHPDKTKSDKSEELFKAVVHAHSILTDEDQKLRYDRDLKIKGLHTYQPKK
soluble on expression in E. coli: not soluble

VPGPEYKVAILTVSDTVSAGAGPDRSGPRAVSVVDSSSEKLGGAKVVATAVVPDEVERIKDILQKWSDVDEMDLILTLGGTGFTPRDVTPEATKKVIERETPGLLFVMMQESLKITPFAMLARSAAGIRGSTLIINMPGNPNAVAECMEALLPALKHALKQIKGDKR
soluble on expression in E. coli: soluble

MSTTANKERCLEMVAAWNRWDVSGVVAHWAPDVVHYDDEDKPVSAEEVVRRMNSAVEAFPDLRLDVRSIVGEGDRVMLRITCSATHQGVFMGIAPTGRKVRWTYLEELRFSEAGKVVEHWDVFNFSPLFRDLGVVPDGL
soluble on expression in E. coli: soluble

MSCALLIENLTCQYDAQTVLKSLSLQVNPGEIVCLLGASGCGKTTLLKAIAGLLPLASGQLSLNCVTLDDGKRWLPPEQRNIGMIFQDYALFPHLTVAQNVGFGLDAMPAKQKEAKIAEMLALVHLDAFAERYPHQLSGGQQQRVAIARALAYKPDLLLLDEPFSNIDTQVRHELIIEIRKIFKQQGVTAIFVTHSREEAFAFADKMAVMNRGVIEQYGTAAELYYQPSSQFVADFLGGGSYLSAKRISETQYQTALGVVEAIARQPIAVEAECKLLLRPQQVQIRAEEESSVTVTEQQFMGDHCRYLIDAHGTQLIATSSQPLELGQAVSVNIDTQGVLAFA
soluble on expression in E. coli: not soluble

MGSDKIHHHHHHMRKLPPLRALQVFEAAARHLHFSRAAEELCLTQSAVSHQVRGLEQHLGQTLFARRGRELALTPKGEQLFLAVQSALDGLDSLCRQLNEAESRELRLAVYSSFAVKWLIPRLGDFRRQHPGIKIHLEMVSGDPPLSDQVADMFICGEQHQRGFWQTLLRPERLIPVCSPALANALGEALVMPLRLDSLPLLSVDEADIGPDWARWAKSQAQTLTQAQLQSYSHVLLAIEAAIAGQGIALASDFIVEGDIAAGKLMALPWPALETGFGFHFCCRERRLKEPAMAAFAEWIQQQAAMAG
soluble on expression in E. coli: not soluble

MGSDKIHHHHHHMIKSFWLENFGPISLLKADNLGKINLIIAENSKGKTFILKALYSVLKSHEEAHKGKNIRDFSEELRDKLYWTFQVEEIGDLVTRGKENPNERPLKLSMTLEDSSSVLFSFGRTTKKLIKPELYELSPRINANSIFLPPKEVLSLFDVIKKSEEEKRFGFDATYIDLVKALDIKPTKGRNYPEAAEARKDLEALFGGYVSYNDKKKAWVYEKDRQTFSINSTAEGVKKIGILDTLLGNRFLSPGSILFIDEPEANLHPKAINQFLEILFSLSKSKLGIQIFMSTHSYFVIKKLCLLARKHSESIPVFMPGKEKEQTTWVQENLQNSMPDNEIIGESIRLFREEIGVLSPETAWIG
soluble on expression in E. coli: not soluble

VARSSKLLGWCQRQTDGYAGVNVTDLTMSWKSGLALCAIIHRYRPDLIDFDSLDEQNVEKNNQLAFDIAEKELGISPIMTGKEMASVGEPDKLSMVMYLTQFYEMFKD
soluble on expression in E. coli: soluble

DSRGCARWCPQDSSCVNATACRCNPGFSSFSEIITTPMETCDDINECATLSKVSCGKFSDCWNTEGSYDCVCSPGYEPVSGAKTFKNESENTCQDVDECSSGQHQCDSSTVCFNTVGSYSCRCRPGWKPRHGIPNNQKDTVCE
soluble on expression in E. coli: soluble

MSLEFQLDLIRGEHMEIEKLLEQVNWEKNNGIVPVIVQDEKGEVLTLAYMNKEALRKTLETGIAHYYSRSKGRIRMKGEVSGNIQTVKEIKIDCDNDALLLIVSPKGPACHTGNYSCFYRKLGEPERVLPIDYSLSILKELEEIIKRRKETPVEGSYTSKLFKEGREKIYKKFGEEAIEVLVAEKRERIIYEVADLLYHLLVLLTYNDISLGEVMNELRRRRKEGHHHHHH
soluble on expression in E. coli: soluble

EETDESNDMRPLFDTILKYTPAPSGSADETLQLQISQLDYDNYTGRLGIGRILNGRIKPGQTVAVMNHDQQIAQGRINQLLGFKGLERVPLEEAEAGD
soluble on expression in E. coli: not soluble

MSEDGLKVSVLASGSTGNVTYIETPERKVLVDAGLSGKKIAGLMDSVGRDISEVDSLFVTHEHSDHIQSVGVLARKYGIDIYANQGTWDAIGGKIGKVPTEQKFIFDPNTTKSLDDLDIESFSVSHDAAEPQFYEFHHAGKSFVILTDTGYVSDRIAGTIRNADGYLFEVNHDTEMLRMGGYPWPLKQRIMGDHGHLSNEDGANALMDVIGNRTKKIYLGHLSLHNNMKELAHLTVTSMMQNHDLAVGHDFEILDTDHKIADPLTLILEHHHHHH
soluble on expression in E. coli: soluble

SNAIIAGETSIPSQGENMPAYHARPKNADGPLPIVIVVQEIFGVHEHIRDLCRRLAQEGYLAIAPELYFRQGDPNEYHDIPTLFKELVSKVPDAQVLADLDHVASWAARHGGDAHRLLITGFCWGGRITWLYAAHNPQLKAAVAWYGKLVGEKSLNSPKHPVDIAVDLNAPVLGLYGAKDASIPQDTVETMRQALRAANATAEIVVYPEADHAFNADYRASYHEESAKDGWQRMLAWFAQY
soluble on expression in E. coli: soluble

MGSDKIHHHHHHMIVPQEIYHPLYEDKEKFIILITGGRGSGKSFNASTFIERLTFELTPVEKIVHQILYTRYTMVSAGMSIIPEMMEKIELDGTTKYFKTTKTDIVNKMTKSRIMFRGIKTSSGNQTAKLKSIQGITTFVCDEAEEWTNEEEFDKIMLSIRKKGIQNRIIIIMNPCDSNHFIYKKYIENTHKLVEIDGVQVQISTHPNVLHIHTTYLDNLENLSPEFLKEVEDMKVNNPEKYAHVVIGRWADVAEGAVFKKWGIVDEFPAWAKKVAIGQDFGYTHDPSASIRCGIVDNALYLDEIDYRTGLLSSDIIKSLRPWGLKVIADSADPRLIQEIHNGGVKIYAVEKGAGSVNAGLDKMQGMEMYITKRSYNLQREYRKYVWAKDKDGNYINEPEDHDNHGIDAVRYYVLGELLGKIQKPKDLTGIFTH
soluble on expression in E. coli: not soluble

LRARTYGEGGFRVERVLEERPAFTRVQFSYLSDGLRVHGFANLPKGRGPFPVVVVLHGYVEPSRYRLLAYTTPYADFLAERGYLVLHPNFRGHPPSEGAPAQGLRHVYAVDVLNLLAEVRRGAFPQADPARIALFGHSMGGGVAQIVSLVDPGLKGAVLYGSMSGDERRNLERIRYWSGGSRGQELFALSPEVLRQASAWTYLAELSVPYSVHHGTQDAQVPPEWSWELCRRLKALKKPVECFSYPGGHLFRGEVDRVFRERVLAFLGRVL
soluble on expression in E. coli: soluble

MLKPLGDRVVIELVQAEEKTASGIVLPDTAKEKPQEGKVIAVGTGRVLENGERVALEVAAGDLIIFSKYAGTEVKYEGTDYLILRESDILAVIG
soluble on expression in E. coli: not soluble

MGSDKIHHHHHHMEPTFQPSRSAIPVLSVSGVGKTYAEPVLADVTLTLAPGEALALTGENGAGKSTLSKIIGGLVDPTTGTMQLGGQAYAPASRTQAEALGVRMVMQELNLLPTLTVAENLFLNRLPRRFGIIDRARLHDDAQAAMARVGLDAIDPDTPVGALGIGHQQMVEIARNLIGDCRVLILDEPTAMLTAREVELLFEQIDRLKAHGVAIVYISHRLDELARVAERVAVLRDGRLVHVGDMAATTSDGLVTLMVGREIGEHIDLGPRRIGAPRLAVSGMTRGTAVQDVSLEVRSGEIFGISGLIGAGRTELLRLIYGADTPDAGMISVGDPLKPARIASPVDAVRHGIALITEDRKGEGLLLSQSVTSNVSLGQLEQLARGGIVNTARETALAEQQIDALRIRTHGAAQPVGELSGGNQQKVVIGRWLARDMGVLLFDEPTRGIDVGAKFEIYTLMGALARDGRALVVVSSDLRELMLICDRIGVMSAGRMTAVFERGNWTQDALLAAAFAGFGRDALPEGARHLDAQAAPRAASGTSTTGRQQ
soluble on expression in E. coli: not soluble
